Experimental data reported in article PMC4676636, “Aptamers Binding to c-Met Inhibiting Tumor Cell Migration”.

Key:
[1] = molecular target: T1, human c-Met-Fc (c-Met ectodomain, IgG1-Fc fusion) (Homo sapiens, UniProt P08581 25-932); assay: filter binding (dotblot); Dotblot: nitrocellulose filter, 37 C (competition, 30 min); BLI: DPBS, 37 C, Protein A tips, 1:1 fit; ELISA: PBS/1% BSA; flow cytometry: PBS/1% BSA, 4 C, 30 min; conditions: protein: recombinant; tags: Fc (IgG1); chain copies: 2; label: 32P (dotblot)
[2] = molecular target: T1, human c-Met-Fc (c-Met ectodomain, …); assay: competition ELISA; competes with immobilized HGF; Fig 2 legend gives 72 nM; Dotblot: nitrocellulose filter, 37 C (competition, 30 min); BLI: DPBS, 37 C, Protein A tips, 1:1 fit; ELISA: PBS/1% BSA; flow cytometry: PBS/1% BSA, 4 C, 30 min; conditions: protein: recombinant; tags: Fc (IgG1); chain copies: 2; label: 32P (dotblot)
[3] = molecular target: T1, human c-Met-Fc (c-Met ectodomain, …); assay: competition; vs 32P-CLN3-T; Dotblot: nitrocellulose filter, 37 C (competition, 30 min); BLI: DPBS, 37 C, Protein A tips, 1:1 fit; ELISA: PBS/1% BSA; flow cytometry: PBS/1% BSA, 4 C, 30 min; conditions: protein: recombinant; tags: Fc (IgG1); chain copies: 2
[4] = molecular target: T1, human c-Met-Fc (c-Met ectodomain, …); assay: competition; vs 32P-CLN64-T; Dotblot: nitrocellulose filter, 37 C (competition, 30 min); BLI: DPBS, 37 C, Protein A tips, 1:1 fit; ELISA: PBS/1% BSA; flow cytometry: PBS/1% BSA, 4 C, 30 min; conditions: protein: recombinant; tags: Fc (IgG1); chain copies: 2; 3'-biotin (CLN-F-B, cells)

T1 sequence (P08581 25-932): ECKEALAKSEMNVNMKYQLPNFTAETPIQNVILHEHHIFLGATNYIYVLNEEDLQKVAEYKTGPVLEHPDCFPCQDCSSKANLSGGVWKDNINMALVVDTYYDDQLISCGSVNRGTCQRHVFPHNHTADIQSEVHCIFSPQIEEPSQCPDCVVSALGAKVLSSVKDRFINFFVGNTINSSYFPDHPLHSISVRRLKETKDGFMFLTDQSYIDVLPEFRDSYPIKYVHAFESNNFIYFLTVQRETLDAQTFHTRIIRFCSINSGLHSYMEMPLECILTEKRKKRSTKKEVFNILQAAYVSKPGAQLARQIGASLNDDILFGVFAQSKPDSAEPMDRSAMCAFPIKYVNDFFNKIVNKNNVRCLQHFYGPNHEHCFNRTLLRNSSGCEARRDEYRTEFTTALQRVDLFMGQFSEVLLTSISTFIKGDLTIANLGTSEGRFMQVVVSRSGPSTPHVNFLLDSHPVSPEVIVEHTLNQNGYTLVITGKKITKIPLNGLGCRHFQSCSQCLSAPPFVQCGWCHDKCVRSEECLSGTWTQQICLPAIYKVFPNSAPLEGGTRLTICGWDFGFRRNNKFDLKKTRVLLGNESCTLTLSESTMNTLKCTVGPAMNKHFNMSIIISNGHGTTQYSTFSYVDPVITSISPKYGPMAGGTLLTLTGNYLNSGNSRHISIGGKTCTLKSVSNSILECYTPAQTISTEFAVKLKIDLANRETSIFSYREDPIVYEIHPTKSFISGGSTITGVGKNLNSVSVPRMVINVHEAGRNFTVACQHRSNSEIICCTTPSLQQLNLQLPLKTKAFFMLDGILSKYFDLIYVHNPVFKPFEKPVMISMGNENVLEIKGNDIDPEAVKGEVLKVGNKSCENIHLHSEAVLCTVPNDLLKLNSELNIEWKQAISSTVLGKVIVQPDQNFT

B1: CLN3-T (SL1) (ssDNA)
DNA: GAAAAGTTATCAGGCTGGATGGTAGCTCGGTCGGGGTGGGTGGGTTGGCAAGTCTGATT
- Kd [1]: 0.1 nM
- IC50 [2]: 74 nM

B2: CLN-X (ssDNA)
DNA: GGAGGGAAAAGTTATCAGGCATGCGCTAGCCGATCGAATCCCGTAGACATTCCGATCGACGATTAGTTTTGGAGTACTCGCTCC
- binding result [3]: no binding

B3: CLN-F (XNA)
DNA: GGAGGGAAAAGTTATCAGGCCGCTAGTTACCAGGTGTAGCTGACCAAGCGGATGTGTGTTGATTAGTTTTGGAGTACTCGCTCC
modifications: 2'-O-methyl purines and 2'-fluoro pyrimidines (mRfY)
- binding result [4]: no binding
